Consider two substances from publication PMC6685639.

This test deals with GST-PfPP1c (P. falciparum).

Take “6-His PbGEXP15 (4–178) (domain or fragment)”: the pNPP dephosphorylation activity of recombinant PfPP1c (40 pmol, without GST) pre-incubated 30 min at 37°C with different amounts of PbGEXP15 (4–178); concentration-dependent increase amounted to 2 fold.

With “6-His PbGEXP15 (4–590) (domain or fragment)”, the pNPP dephosphorylation activity of recombinant PfPP1c (40 pmol, without GST) pre-incubated 30 min at 37°C with different amounts of PbGEXP15 (4–590); concentration-dependent increase was 2 fold.
